Test system: MS2 coat protein
Assay: apparent KD of MS2 coat protein; designed switch direction (-1 OFF switch, 1 ON switch): -1; higher = weaker reporter binding
Procedure, shortened: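 Normalised cluster fluorescence was curve-fitted, and each design's median over clusters is its apparent KD. Before this, SNAP-549-labelled MS2 coat protein was titrated from 0.7 or 1.5 nM, doubling to 3 µM, over RNA switches transcribed on Illumina chips by stalled E. coli RNA polymerase. Titrations had no input, 200 uM small-molecule ligand, or an oligonucleotide input, and steps lasted 0.8–1.5 h (lowest) to 10–20 min (highest).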

[1] = Eterna round: R95, input ligand: microRNA oligo, concentration not stated
[2] = Eterna round: R95, input ligand: FMN 200 uM
[3] = Eterna round: R95, input ligand: none

Sequence | apparent KD of MS2 coat protein [1] [nM] | apparent KD of MS2 coat protein (input ligand: FMN 200 uM) [nM] | apparent KD of MS2 coat protein (input ligand: none) [nM] | apparent KD of MS2 coat protein [2] [nM] | apparent KD of MS2 coat protein [3] [nM] | apparent KD of MS2 coat protein (input ligand: microRNA oligo, concentration not stated) [nM]
AAUAACAGAGGAUAUACUGUUUUAUGUGUUUGUUAUUUUAAACAUGAGGAUCACCCAUGUAGAAGGCUGAAUAA [JMF 15] (puzzle: Exclusion 2) | 19.8 |  |  |  |  | 
AAUAACAGAGGAUAUACUGUUUUAUGUGUUUGUUAUUUUGAACAUGAGGAUCACCCAUGUAGAAGGCUGAAUGA [JMF 64] (puzzle: Exclusion 2) | 27.1 |  |  |  |  | 
AAUAACAGAGGAUAUACUGUUUUAUGUGUUUGUUGUUUUAAACAUGAGGAUCACCCAUGUAGAAGGCUGAAUAA [JMF 19] (puzzle: Exclusion 2) | 18.4 |  |  |  |  | 
AAUAACAUGUUGAUCAAAUACAUGAGGAUCACCCAUGUAUGCUUUUUGUUCGAUAAGAUCAACUAAUAAUAAUAAUA [StovNew/1-C] (Eterna round: R97, puzzle: Sensor, turn-off variant 1) |  | 12.2 | 12.6 |  |  | 
AAUAAGCGAGGAUAUACACCCGGAAAACGGGAACGGGCGAGACAUGAGGAUCACCCAUGUAGAAGGCGCGUCAA [Sogexe] (Eterna round: R97, puzzle: Exclusion 2) |  | 28 | 77.9 |  |  | 
AAUAAGCUAGGAUAUACAUGAGGAUCACCCAUGUAUGACGAUACAGAAUCUGGCCCGAGUAGAAGGAGCAAACU [EX3 B.7] (Eterna round: R97, puzzle: Exclusion 3) |  | 23.2 | 17.4 |  |  | 
AAUAAGCUAGGAUAUACAUGAGGAUCACCCAUGUGAGGGCACCGCCGGCGCGGGCCCGGUAGAAGGAGUCAUAA [Exc;s3-V] (puzzle: Exclusion 3) | 34.3 |  |  | 22.1 | 27.7 | 
AAUAAUAAGGAGGAUAUCGUAUGCGAAAGCAUACGAGAAGGCCUAACAUGAGGAUCACCCAUGUUCCUCAAUAA [Mat - Exclusion 6 - Eli Mod - D55] (puzzle: Exclusion 6) | 254 |  |  | 659 | 259 | 
AAUAAUAAUGUCAGGAUAUCUAGAGCUGCGGCUCUAGAGAAGGGACAUGAGGAUCACCCAUGUCACUCAAUAAU [BmEx4/3-C5] (Eterna round: R97, puzzle: Brourd's mod of Exclusion 4) |  | 22 | 15.1 |  |  | 
AAUAAUCAUGUAGGAUAUGCGUGGCAAAGCUAUGCAGAAGGACAUGAGGAUCACCCAUGUUCUAGCGUCUGAAAACAGAUGCUA [Mat - Exclusion NG 1 - Mod of JL - D83] (Eterna round: R96, puzzle: Exclusion NG 1) |  | 451 | 44.3 |  |  | 29.5
AAUAAUUGUGACUUGGGUGACAUGAGGAUCACCCAUGUCACAAGCUUGUUGCUCGCCUUAUAAUUAACCCAUGUCAC [LRO Sensor-off var1-26 mod of Stov1-13-A1 by Brourd] (Eterna round: R97, puzzle: Sensor, turn-off variant 1) |  | 70.5 | 80.6 |  |  | 
AAUAAUUGUGACUUGGGUGACAUGAGGAUCACCCAUGUCACAAGCUUGUUGCUCGUCUUAUAAUUAACCCAUGUCAC [LRO Sensor-off var1-25 mod of Stov1-13-A1 by Brourd] (Eterna round: R97, puzzle: Sensor, turn-off variant 1) |  | 48.1 | 40.9 |  |  | 
AAUACAAGCAAGAUCCUAAACAUGAGGAUCACCCAUGUGCUCGUCUUAUAAAGUACUAUCACGAAAGUGAUAGUACA [Sensor 3, v1 - 63] (puzzle: Sensor v3, turn-off variant 1) | 438 |  |  | 213 | 234 | 
AAUACAAGUAAGAUCCUAAACAUGAGGAUCACCCAUGUGCUCGUCUUAUAAAGUACUAUCACGAAAGUGAUAGUACA [Sensor 3, v1 - 66] (puzzle: Sensor v3, turn-off variant 1) | 314 |  |  | 48.7 | 37.5 | 
AAUACUAACAGCUGACUGUUAGUACUGUAGGUUUGUGUUACAUGAGGAUCACCCAUGUCCUCAUAGGCUCGUCUUGU [Mat - Sensor v3 - Turn-off var 2 - D98] (puzzle: Sensor v3, turn-off variant 2) | 322 |  |  | 586 | 697 | 
AAUAUAAGCAAGAUCCUAAACAUGAGGAUCACCCAUGUGCUCGUCUUAUAAAGUACUAUCACGAAAGUGAUAGUACA [Sensor 3, v1 - 65] (puzzle: Sensor v3, turn-off variant 1) | 398 |  |  | 111 | 127 | 
AAUAUGUGAGGAUAUUAGUUGUACGUCAAUAGACGUAUAAGUGAGAAGGCACAUGAGGAUCACCCAUGUUCCUG [Omei Ex4 Mod of Mat's R95 mod of Omei v3] (Eterna round: R97, puzzle: Exclusion 4) |  | 98.2 | 23.7 |  |  | 
